# Measurements as given in patent US20070167369A1, “Novel use of isolated polypeptide comprising four FAS-1 domains, EM1 domain and RGD motif” (KYUNGPOOK NATIONAL UNIVERSITY INDUSTRY-ACADEMIC COOPERATION …, priority 2004, published 2007).
# B1: fas-1 domain: recombinant protein containing the fourth fas-1 domain of human βig-h3 (SEQ ID NO: 64) (protein, listed as Homo sapiens)
# chain: MGTVMDVLKGDNRFSMLVAAIQSAGLTETLNREGVYTVFAPTNEAFRALPPRERSRLLGDAKELANILKYHIGDEILVSGGIGALVRLKSLQGDKLEVSLKNNVVSVNKEPVAEPDIMATNGVVHVITNVL
# Columns and labels:
# caspase-3 = assay: Caspase-3 activity in HUVECs (Example 7-2); type: cell-based, human; conditions: control (PBS) at 24 hours about 250 AU
# Protocol: With respect to the induction of endothelial cell apoptosis (active cell death) by the fas-1 domain, which had been confirmed in Example 7-1 above, the present inventors measured the activity of caspase-3, which is activated when apoptosis occurs, in the cells treated with the fas-1 domain.
# HUVECs were spread onto a 100-mm plate (10 ml culture solution) with M199 medium containing 10% FBS, followed by incubation in a 37° C. incubator for 12 hours. After the incubation, the medium was removed from the plate, the cells were added with fresh medium containing 0.1% FBS and further incubated for 24 hours. The cell-containing medium was treated with 5 μM or 20 μM of the fas-1 domain (βig-h3 D-IV) prepared in Example 1. A control was treated with PBS buffer. At 12 hours and 24 hours after the treatment, the cells were harvested. The caspase-3 activity of the cells was measured with an EnzCheck Caspase-3 Assay Kit(#2) (Molecular Probe Co., Eugene, Oreg., USA). Moreover, to verify that measured values are attributed to caspase-3 activity, each of the samples was treated with DEVD-CHO (Molecular Probe Co., Eugene, Oreg., USA) as a caspase-3-specific inhibitor. The control was treated with DMSO.
# melanoma cells (B16F10) [1] = assay: Apoptosis by annexin V staining/FACS, melanoma cells (Example 7-1); type: cell-based, murine; conditions: 48 hours
# Protocol: Annexin V is a protein binding to calcium-dependent phospholipid, and known to have a strong affinity for phosphatidylserine such that apoptosis can be assayed. For this reason, the present inventors performed a test using an annexin V staining kit (Santa Cruz Biotechnology Inc.).
# Each of human umbilical vein endothelial cells (HUVECs) and melanoma cells (B16F10) was suspended in medium at a density of 5×10^5 cells/ml, added to each well of […] and incubated at 37° C. overnight. On the next day, the cells were washed one time with PBS buffer, then added with serum-free medium and incubated at 37° C. for 24 hours. 0.2% FBS-containing fresh medium was treated with the fas-1 domain (βig-h3 D-IV) prepared in Example 1, at various concentrations, then added to each well of the plate and incubated at 37° C. for 48 hours. A negative control was added with PBS, a positive control was incubated with TNF-α or Vitamin C, which are known to induce the apoptosis of endothelial cells and melanoma cells. FITC (fluorescein isothiocyanate)-conjugated annexin V antibodies were added and allowed to react at 4° C. for one hour. After completion of the reaction, unbound annexin V antibodies were removed with PBS buffer, and the apoptosis of the cells was analyzed using FACS (BD Biosciences).
# melanoma cells (B16F10) [2] = assay: Proliferation of fas-1-overexpressing melanoma cells, MTT (Example 10-1); type: cell-based, murine; conditions: fas-1 domain overexpressed (fas-1/B16F10) vs pLNCX/B16F10, 48-72 hours
# Protocol: cDNA (SEQ ID NO: 65) encoding the fourth fas-1 domain of βig-h3 was cloned into the EcoRI/XhoI sites of a pLNCX retrovirus vector (Clontech Lab. Inc., USA). The resulting recombinant retrovirus vector was named “fas-1/pLNCX”. Packaging cell PT67 (Clontech Lab. Inc., USA) were transfected with the fas-1/pLNCX vector using lipofectamine. The transformed cells were incubated at 37° C. for 48 hours. After completion of the incubation, virus particles present in the culture medium were collected, and filtered one time through a 0.45-μm filter. The filtered virus particles were added to a culture medium of melanoma cells (B16F10), and then allowed to react at 37° C. for 6 hours. The culture medium was replaced with fresh medium, and the transfected cells were screened several times in the presence of 1 mg/ml of G418. Western blot analysis using a βig-h3 antibody was performed to confirm that the fas-1 domain is overexpressed in the screened transfected cells. As a result, fas-1-overexpressing melanoma cells (hereinafter, referred to as “fas-1/B16F10”) were prepared. […]
# Each of the fas-1-overexpressing melanoma cells (fas-1/B16F10) and the control cells (pLNCX/B16F10) was suspended in medium at a density of 3×10^4 cells/ml, and 0.1 ml of the cell suspension was added to each well of a 96-well plate. […] Thereafter, the absorbance was measured at 570 nm in a Bio-Rad model 550 microplate reader.
# HUVECs = assay: Inhibition of βig-h3-mediated endothelial cell adhesion (Example 4-1); type: cell-based, human
# Protocol: HUVECs were suspended in medium at a density of 3×10^5 cells/ml, and 0.1 ml of the cell suspension was added with the fourth fas-1 domain of βig-h3 (βig-h3 D-IV) prepared in Example 1, at concentrations of 5 μM, 10 μM and 20 μM, respectively, and preincubated at 37° C. for 30 minutes. The preincubated cells were added to each well of the 96-well plate precoated with a recombinant βig-h3 His-1-b protein. Then, the cells were tested in the same manner as in Example 2. A control was treated with 2% BSA.
# pc/HEK293 cells = assay: Apoptosis by annexin V staining, pc/HEK293 control cells (Example 8); type: cell-based; conditions: annexin V FACS
# Protocol: A control cell was transfected with a pcDNA3 vector containing no β3 cDNA or β5 cDNA fragment, and named “pc/HEK293”.
# pc/HEK293 cells, β3/HEK293 cells and β5/HEK293 cells were stained with annexin V to identify an integrin that mediates the induction of endothelial cell apoptosis by the fas-1 domain. Each of the cells was suspended in medium at a density of 5×10^5 cells/ml, added to each well of 6-well plated and incubated at 37° C. overnight. Following this, a test was performed in the same manner as in Example 7-1 above.
molecule,measurement,setting,value
B1,caspase-3 activity,caspase-3; 5 μM,300 AU
same,caspase-3 activity,caspase-3; 20 μM,600 AU
same,induction of apoptosis of B16F10 cells,melanoma cells (B16F10) [1],did not induce the apoptosis of B16F10 cells
same,effect on proliferation of melanoma cells,melanoma cells (B16F10) [2],no effect on the proliferation of melanoma cells
same,inhibition of βig-h3-mediated adhesion of endothelial cells,HUVECs; 5 μM,inhibited
same,inhibitory effect of endothelial cell adhesion compared with YH motif-containing peptide fragment of 18 amino acids,"HUVECs; 20 μM fas-1 domain vs 1,000 μM YH peptide",higher
same,inhibition of βig-h3-mediated adhesion of endothelial cells,"HUVECs; 5, 10 and 20 μM",inhibited in a dose-dependent manner
same,induction of apoptosis of pc/HEK293 cells,pc/HEK293 cells,not induced
